Ends that are not written are not given here.
B1: IP239 (Fc fusion)
chain: YSEGTFTSDYSKLLEEEAVRLFIEWLVKGPAAAGGSGSTASSGSGSATGGGGAACPPCPAPEF
B2: IP290 (Fc fusion)
chain: YSEGTFTSDYSKLLEEEAVRLFIEWLVKGPGGGGGGGGGGGGGGGGGGGGACPPC
B3: IP411 (Fc fusion)
chain: YGEGTFTSDYSKLLEEEAVRLFIEWLVKGPGGGGGGGGGGGGGGGGGGGGACPPC
B4: IP172 (Fc fusion)
chain: HGEGTFTSDVSSYMERQAIDEFIAWLLAGAAAGGSGSTASSGSGSATGGGGAATHTCPPCPAPEF
B5: IP215 (Fc fusion)
chain: HGEGTFTSDVSSYMESQLVDEFIAWLVKGAAAGGSGSTASSGSGSATGGGGAATHTCPPCPAPEF
B6: IP175 (Fc fusion)
chain: HGEGTFTSDVSSYMESQLVREFIAWLVKGAAAGGSGSTASSGSGSATGGGGAATHTCPPCPAPEF
B7: IP214 (Fc fusion)
chain: HGEGTFTSDVSSYMEAQKIDEFIAWLVKGAPPGGSGSTASSGSGSATGGGGAATHTCPPCPAPEF
B8: IP198 (Fc fusion)
chain: HGEGTFTSDVSSYMERQAIDEFIAWLLKGGAAAGGSGSTASSGSGSATGGGGAATHTCPPCPAPEF
B9: IP206 (Fc fusion)
chain: HGEGTFTSDVSSYMEAQSIREFIAWLVKGPAPPGGSGSTASSGSGSATGGGGAATHTCPPCPAPEF
B10: IP255 (Fc fusion)
chain: YSEGTFTSDYSKLLEEEAVRLFIEWLKNGTGGGGGSGGGGSGGGGSGGGGSATHTCPPCPAPEF
B11: IP265 (Fc fusion)
chain: YSEGTFTSDYSKLLEEEAVRLFIEWLVKGPGKGGGSGGGGSGGGGSGGGGSATHTCPPCPAPEF
B12: IP286 (Fc fusion)
chain: YSEGTFTSDYSKLLEEEAVRLFIEWLVKGPGGGGGGGGGGGGGGGGGGGGGGGGGGGATHTCPPC
B13: IP229 (Fc fusion)
chain: YSEGTFTSDYSKLLEEEAVRLFIEWLLAGAAAGGSGSTASSGSGSATGGGGAATHTCPPCPAPEF
B14: IP252 (Fc fusion)
chain: YSEGTFTSDYSKLLEEEAVRLFIEWLVKGPGGGGGSGGGGSGGGGSAESKYGPPCPPCPAPEAA
B15: IP210 (Fc fusion)
chain: YSEGTFTSDLSKLLEEEAVRLFIEWLVKGPAAAGGSGSTASSGSGSATGGGGAATHTCPPCPAPEF
B16: IP211 (Fc fusion)
chain: YSEGTFTSDYSSYMEEEAVRLFIEWLVKGPAAAGGSGSTASSGSGSATGGGGAATHTCPPCPAPEF
B17: IP281 (Fc fusion)
chain: YSEGTFTSDYSKLLEEEAVRLFIEWLVKGPGGGGGSGGGGSGGGGSGGGGSACPPC
B18: IP254 (Fc fusion)
chain: YSEGTFTSDYSKLLEEEAVRLFIEWLLAGNGTGGGGSGGGGSGGGGSGGGGSATHTCPPCPAPEF
B19: IP421 (Fc fusion)
chain: HGEGTFTSDLSKQMEEECVRLFIEWLKNGGPSSGAPPPGCGSGGGGSGGGGSGGGGSGGGGSGGGGSGGGGSGGGGSACPPC
B20: IP256 (Fc fusion)
chain: YSEGTFTSDYSKLLEEEAVRLFIEWLLAGGHNITQGGGGGSGGGGSGGGGSGGGGSATHTCPPCPAPEF
B21: IP285 (Fc fusion)
chain: YSEGTFTSDYSKLLEEEAVRLFIEWLVKGPGGGGGGGGGGGGGGGGGGGGGGGATHTCPPC
B22: IP423 (Fc fusion)
chain: YSEGTHTSDLRILLEEEAVRLFIEFLLAGGGSGGGGSGGGGSGGGGSGGGGSGGGGSGGGGSGGGGSACPPC
B23: IP410 (Fc fusion)
chain: YSEGTFTSLYRIHKEEEAVRLFIEKLLAGGGSGGGGSGGGGSGGGGSGGGGSGGGGSGGGGSGGGGSACPPC
B24: IP415 (Fc fusion)
chain: HSQGTFTSDYSKILEEEAVRLFIEWLLAGGGSGGGGSGGGGSGGGGSGGGGSGGGGSGGGGSGGGGSACPPC
B25: IP416 (Fc fusion)
chain: YSEGTFTSDYSKLLEEEAVRLFIEWLLAGGGSGGGGSGGGGSGGGGSGGGGSGGGGSGGGGSGGGGSACPPC

How the values were obtained:
Test in all cases: cell-based or functional assay
[1] = target: T1, human GIP receptor (human, UniProt P48546 22-466)
T1 sequence (looked up): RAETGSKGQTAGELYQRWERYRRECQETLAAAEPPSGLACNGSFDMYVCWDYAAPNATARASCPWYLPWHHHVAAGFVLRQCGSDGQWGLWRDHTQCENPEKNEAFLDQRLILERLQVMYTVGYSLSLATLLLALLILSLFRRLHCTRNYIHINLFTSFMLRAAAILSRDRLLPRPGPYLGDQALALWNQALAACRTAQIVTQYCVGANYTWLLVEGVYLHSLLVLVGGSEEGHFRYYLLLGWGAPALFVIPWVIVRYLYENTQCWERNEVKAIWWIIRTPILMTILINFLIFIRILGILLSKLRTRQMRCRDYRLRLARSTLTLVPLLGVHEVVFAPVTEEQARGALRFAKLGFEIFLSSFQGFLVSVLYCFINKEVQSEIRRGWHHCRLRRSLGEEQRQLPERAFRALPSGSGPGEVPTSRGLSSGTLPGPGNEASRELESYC

[2] = target: human glucagon receptor (human, UniProt P47871 26-477)
[3] = target: human GLP-1 receptor (human, UniProt P43220 24-463)
[4] = target: T2, mouse GIP receptor (mouse, UniProt Q0P543 19-460)
T2 sequence (looked up): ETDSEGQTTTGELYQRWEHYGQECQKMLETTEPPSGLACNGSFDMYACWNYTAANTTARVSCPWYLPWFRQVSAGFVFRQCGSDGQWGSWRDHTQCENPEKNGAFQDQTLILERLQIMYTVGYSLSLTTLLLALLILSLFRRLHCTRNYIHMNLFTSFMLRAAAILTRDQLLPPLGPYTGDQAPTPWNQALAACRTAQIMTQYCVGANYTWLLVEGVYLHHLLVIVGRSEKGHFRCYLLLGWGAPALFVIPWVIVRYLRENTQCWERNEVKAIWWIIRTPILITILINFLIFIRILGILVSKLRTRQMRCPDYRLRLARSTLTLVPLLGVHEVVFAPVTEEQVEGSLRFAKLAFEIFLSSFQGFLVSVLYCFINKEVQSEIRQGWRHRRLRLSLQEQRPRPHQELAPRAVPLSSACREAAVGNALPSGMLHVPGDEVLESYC

Binder | cAMP EC50 [1] [pM] | cAMP EC50 [2] [nM] | cAMP EC50 [3] [pM] | cAMP EC50 [4] [nM] | cAMP EC50, hGIPr (C3) line [1] [nM]
B1 | 8 | > 990 | 88 | – | –
B2 | 18 | > 2590 | 140 | – | –
B3 | – | > 631 | 420 | > 631 | –
B4 | 16000 | > 15000 | 57 | – | –
B5 | – | – | 50 | – | –
B6 | – | – | 51 | – | –
B7 | – | – | 75 | – | –
B8 | 6300 | – | 42 | – | –
B9 | – | – | 84 | – | –
B10 | 70 | > 4600 | 220 | – | –
B11 | 15 | > 13000 | 100 | – | –
B12 | 8 | 920 | 72 | – | –
B13 | 6.2 | 28 | 150 | – | –
YSEGTFTSDYSKLLEEEAVRLFIEWLVKGPGGGGGSATHTCPPCPAPEF (Fc fusion, cysteine pairing not given here; also: fused to IgG1-TM Fc) [IP234] | 43 | > 15000 | 740 | – | –
B14 | 24 | > 3200 | 190 | – | –
B15 | 19 | – | 180 | – | –
B16 | 500 | – | 230 | – | –
B17 | 14 | 3800 | 87 | – | –
B18 | 26 | 160 | 530 | – | –
B19 | – | > 106 | 3000 | > 106 | –
B20 | 37 | > 420 | 400 | – | –
YSEGTFTSDYSKLLEEEAVRLFIEWLVKGPGGGGGGGATHTCPPC (Fc fusion) [IP283] | 49 | > 17000 | 560 | – | –
B21 | 8.7 | 1600 | 76 | – | –
YSEGTFTSDYSKLLEEEAVRLFIEWLVKGPGGGGGGGGGGGGATHTCPPC (Fc fusion) [IP284] | 39 | 18000 | 200 | – | –
B22 | – | > 34.2 | > 34200 | 12 | –
B23 | – | > 7.99 | > 7990 | – | > 7.99
B24 | – | 0.018 | 38 | 5.6 | –
B25 | – | 3.4 | 100 | 1.1 | –
